The results in this text go back to PMC7367482, “An Erg11 lanosterol 14-α-demethylase-Arv1 complex is required for Candida albicans virulence” (PLoS ONE, 2020).

This test deals with T1, ScErg28-Cub (S. cerevisiae, UniProt P40030 1-148).
T1 construct: Erg28 of S. cerevisiae, scaffold of the ergosome; Cub vector pCYC-BAIT-Cub-PLV; source: split-ubiquitin two-hybrid fusion, S. cerevisiae L40
T1 sequence: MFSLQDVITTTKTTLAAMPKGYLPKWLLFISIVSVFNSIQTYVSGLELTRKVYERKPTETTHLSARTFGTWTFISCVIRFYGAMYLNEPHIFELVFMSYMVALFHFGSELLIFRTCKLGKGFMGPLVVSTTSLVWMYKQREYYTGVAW
As to the kind of experiment: two-hybrid; split-ubiquitin two-hybrid in S. cerevisiae L40; Cub-PLV and NubG fusions; growth on Trp- Leu- His- plates after 48 hr and >3-fold β-galactosidase activity over the negative control. To be noted: partners not purified.

B1: ScErg27-NubG (natural protein)
chain: MNRKVAIVTGTNSNLGLNIVFRLIETEDTNVRLTIVVTSRTLPRVQEVINQIKDFYNKSGRVEDLEIDFDYLLVDFTNMVSVLNAYYDINKKYRAINYLFVNAAQGIFDGIDWIGAVKEVFTNPLEAVTNPTYKIQLVGVKSKDDMGLIFQANVFGPYYFISKILPQLTRGKAYIVWISSIMSDPKYLSLNDIELLKTNASYEGSKRLVDLLHLATYKDLKKLGINQYVVQPGIFTSHSFSEYLNFFTYFGMLCLFYLARLLGSPWHNIDGYKAANAPVYVTRLANPNFEKQDVKYGSATSRDGMPYIKTQEIDPTGMSDVFAYIQKKKLEWDEKLKDQIVETRTPI
notes: Erg27 of S. cerevisiae; Nub vector pADH-PREY-2HA-NubG; source: split-ubiquitin two-hybrid fusion, S. cerevisiae L40
B1: the “fold increase in β-galactosidase activity over the negative interaction control” value stood at 15 fold.
